Experimental data from patent publication US20220010020A1 (Five Prime, published 2022).

T1: FGFR2-IIIb (fibroblast growth factor receptor 2 IIIb splice form) (human, UniProt P21802 22-377)
T1 construct: also called FGFR2b; KGFR
T1 chain: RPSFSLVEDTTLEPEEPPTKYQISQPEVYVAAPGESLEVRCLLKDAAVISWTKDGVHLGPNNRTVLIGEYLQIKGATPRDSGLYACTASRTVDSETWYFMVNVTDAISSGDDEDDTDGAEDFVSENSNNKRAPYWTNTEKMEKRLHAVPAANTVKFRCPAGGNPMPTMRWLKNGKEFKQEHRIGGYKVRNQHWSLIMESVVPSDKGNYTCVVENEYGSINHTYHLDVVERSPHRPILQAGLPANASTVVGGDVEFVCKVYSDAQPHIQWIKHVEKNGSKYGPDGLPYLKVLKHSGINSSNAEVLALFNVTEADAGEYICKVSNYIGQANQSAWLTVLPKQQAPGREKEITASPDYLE

B1: anti-FGFR2-IIIb antibody (afucosylated, humanized IgG1 monoclonal antibody), control sample incubated without hydrogen peroxide (antibody, V domains shown)
VH: QVQLVQSGAEVKKPGSSVKVSCKASGYIFTTYNVHWVRQAPGQGLEWIGSIYPDNGDTSYNQNFKGRATITADKSTSTAYMELSSLRSEDTAVYYCARGDFAYWGQGTLVTVSS
VL: DIQMTQSPSSLSASVGDRVTITCKASQGVSNDVAWYQQKPGKAPKLLIYSASYRYTGVPSRFSGSGSGTDFTFTISSLQPEDIATYYCQQHSTTPYTFGQGTKLEIKR
notes: also called αFGFR2b; Sample 1
B2: anti-FGFR2-IIIb antibody incubated with 1.0% hydrogen peroxide overnight at room temperature (force oxidized) (antibody, human IgG1, kappa, V domains shown)
VH: B1 VH
VL: B1 VL
notes: Same antibody as m1 after peroxide treatment; also called +1.0% H2O2; 1.0% H2O2
B3: anti-FGFR2-IIIb antibody incubated with 0.1% hydrogen peroxide overnight at room temperature (force oxidized) (antibody, human IgG1, kappa, V domains shown)
VH: B1 VH
VL: B1 VL
notes: Same antibody as m1 after peroxide treatment; also called +0.1% H2O2; 0.1% H2O2
B4: anti-FGFR2-IIIb antibody incubated with 0.01% hydrogen peroxide overnight at room temperature (force oxidized) (antibody, human IgG1, kappa, V domains shown)
VH: B1 VH
VL: B1 VL
notes: Same antibody as m1 after peroxide treatment; also called +0.01% H2O2; 0.01% H2O2

Target: T1, FGFR2-IIIb (fibroblast growth factor …)
Experiment: blocking ELISA (potency), forced oxidation study

Binder | % Potency (Assay 1), against Reference [%] | % Potency (Assay 2), against Reference [%]
B1 | 79 | 89
B2 | 73 | 93
B3 | 78 | 100
B4 | 98 | 106

Target: T1, FGFR2-IIIb (fibroblast growth factor …)
Experiment: ELISA potency of forced oxidation samples

Binder | Potency By ELISA
B1 | 84
B2 | 83
B3 | 89
B4 | 102

Target: T1, FGFR2-IIIb (fibroblast growth factor …)
Experiment: blocking ELISA (potency), forced oxidation study; blocked ligand not named

Binder | IC50 [µg/mL]
B1 | 0.0272
B2 | 0.0257
B3 | 0.0259
B4 | 0.0208
